Results reported in the nanobody polyreactivity screen of Harvey et al. (2022).

Assay: yeast display, Sf9 membrane polyspecificity reagent, FACS + sequencing; frameworks hold sequencing errors
In short: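 A nanobody's polyreactivity label depends on the gate it was sorted from. Yeast display cells were stained with 10% biotinylated, detergent-solubilized Sf9 membrane reagent for 1 hour at 4 °C, enriched on streptavidin microbeads and sorted by FACS. The low and high (top ~1%) gates were set on anti-HA fluorescence for expression and streptavidin fluorescence for reagent binding.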

| Sequence | polyreactivity (PSR sort gate) |
| --- | --- |
| QVQLVESGGVLVQAGGSLRLSCAASGRTFFNYAMGWYRQAPGKESEFVASISWSDVITYYADSVKGRFTISRDNAKNTVYLQMNSLKQEDTAVYYCAASKVGGGEEYWGQGTQVTVSS | low polyreactivity |
| QVQLVESGGGLVQAGGSLRLSCAASGSTFNWYAMGWYRQAPGKERELVASIRISGGSTYYADSVKGRFTISRDNAKNTVYLQMNSLKPEDTAVYYCNAKLFIRWFTYDYWGQGTQVTVSS | low polyreactivity |
| QVQLVESGGGLVQAGGSLRLSCAASGSIFVRNVMGLYRQAPGKERELVATIRYRGGSTYYADSVKGRFSISRDNAKNTVYLQMNSLKPEDTAVYYCNARYLWADEYYYWGQGTQVTVSS | low polyreactivity |
| QVQIVESGGFLVQAGGSLRLSCDASGRNIPGYGMGWSRHAPGKERELVAVITSNGGITYYADSVKGRFTISRDYAKNTVYLQMNSLKPEDTAVYYCDAYVIYYEFDSWGQGTQVTVSS | low polyreactivity |
| QVQLVESGGGLVQAGGSLRLSCAASGFIFGTYTMGWYRQAPGKERELVAAISKSSGSTYYADSVKGRFTISRDNAKNTVYLQMNSLKPEDTAVYYCAAPTRSYGTPPYDYWGQGTQVTVSS | low polyreactivity |
| QVQLVESGGGLVQAGGRLRISSAASGFIFYVNAKGWYRQAPGKERELVAAISWSGGSTYYADSVKGRFTISRDNAKNTVYLQMNSLKPEDPAFYYCAAGASPYEGYDNWGQGTQVTVSS | low polyreactivity |
| QVQLVESGGGLVQAGGSLRLSCAASGIIFPTYVMGWYRQAPGKERELVAVISWSGASTYYADSVKGRFTISRDNAKNSVYLQMNSLKPEDTAVYYCAADWWRVEMDYWGQGTQVTVSS | low polyreactivity |
| QVQLLESGGGLVQAGGSLRLSCAASGRTFRYNAMGWYRQAPGKERELVAAITGSGGSTYYADSVKGRFTISRDNAKNTVYLQMNSLKPEDTAVYYCARAYSYRLYPYGSWGQGTQVTVSS | high polyreactivity |
| QVQLVESGGGLVQAGGSLRLSCAASGSTFDKYSMGWYRQAPGKERELVAAITWGGGSTYYADSVKGRFTISRDNAKNTVYLQMNSLKPEDTAVYYCAAEQGSSVLYDSWGQGTQVTVSS | low polyreactivity |
| QVQLVESGGGLVQAGGSLRLSCAASGYTFWYNAMGWYIPAPGKERELVAAIRSSGARTYYADSVKGRFTISRDNAKNTVYLQMNSLKPEDTAVYYCAASLRSGGRSHYYWGQGTQVTVSS | high polyreactivity |
| QVQLVESGGGLVQAGGSLRLSCAASGFTFYKYAMGGYRQEPGKERELVATITISGITNYADSVKGRFTISRDNAKNTVYLQMNSLKPEDTAVYYCATVGPWPGEYDYWGQGTQVTVSS | low polyreactivity |
| QVQLVESGGGLVQAGGSLRLSCGASGSSFADNAMGRYRPATGTERELVDTNTGSGGSTYYADSVKGRFTISRDNAKNTVYLLMNSLKPEDTAVYYCAAEVVAWSLYEDFKTYDYWGQGTQVTVSS | low polyreactivity |
| QVQLVESGGGLVQAGGSLRLRCAASGRTFDTYAMGWYRQAPWKERELVASITYRGGSTYYADSVKGRFTITRDNAKNTVYLQMNSLKPEDTAVYYCNAKVKRNKRWRGYWGQGTQVTVSS | high polyreactivity |
| QVQLVESGGGLVQAGGSLRLSCADSGSIFSPYAMGWYRQAPGKERELVAAITNSGGRTYYADSVKGRFTISRDNAKNTVYLQMNSLKPEDTAVYYCNADYGKHHPDYYYWGQGTQVTVSS | low polyreactivity |
| QVQLVESGGGLVQAGGSLRLSCAASGIIFYYSAMGCYRQAPGKERELVAAISWSGGTTIYADSVKGRFTISLDNAKSTVYLQMNSLKPKDTAVYYCAAAFSPGWWSRHTYDYDYWGQGTQLTVSS | high polyreactivity |
| QVQLVESGGGLVQAGGSLRLSCAASGRIFYGYAIGWYRQAPGKEREFVARINVSGTSTFYADSVKGRFTISRDNAKNTVYLQMTSLKPEDTAVYDCAARGLPSNDYYYVHGYIMDYWGQGTQVTVSS | low polyreactivity |
| QVQLVESGGGLVQAGGSLRLSCAASGFTFTRNAMGWYRQAPGKERELVAASTWSGGSTYYADSVKGRFTISRDNAKNTVYLQMNSLKPEDTAVYDCAALYRSRYYAGDYWGQGTQVTVSS | high polyreactivity |
| QVQLVESGGGLVQAGGSLRLSCAASGSTFYGNMGWYRQAPGKERALVAAITYRGTNTYYADSVKGRFTISRDNAKNTVYLQMNSLKPEDTAVYYCAAEYDVYQGRGRYYGYDYWGQGTQVTVSS | high polyreactivity |
| QVQLVESGGGLVQAGGSLRLSCAASGIIFLKNAMGWYRQAPGKERELVAAITVSGARTYYADSVKGRFTISRDNAKNTVYLQMNSLKPEDTAVYYCATDRSYQRYNYWGQGTQVTVSS | high polyreactivity |
| QVQLVESGGGLVQAGGSLRLSCAASGRTFYQYAMGWYRQAPGKERELVAAISRRGGSTYYADSVKGRFTISRDNAKNTVYLQMNSLKPEDTAVYYCAARVRGKYDYWGQGTQVTVSS | high polyreactivity |
| QVQLVESVGGLVQAGGSLRLSCAASGSIFFSYAMGWYRQAPGKERELVAGINWSGGSTYADSVKGRFTISRDNAKNTVYLQMNSLKPEDTAVYYCAAKYYSERSRYHYWGQGTQVTVSS | low polyreactivity |
| QVQLVESGGGLVQAGGSLRLSCAASGFIFKDNAMGWYRQAPGKERELVAVSSGTGVRTNYADSVKGRFTISRDNAKNTVYLQMNSLKPEDSAVYYCIADTYRRAQLRFNSWGQGTQVTVSS | low polyreactivity |

| Sequence | polyreactivity (PSR sort gate) |
| --- | --- |
| QVQLVESGAGLVQAGGSLRLSCADSGSIFYYYAMGWYRQAPGKEREFGAAIRESVGSTYYADSVKGSFTISRDNAKNTVYLQMNSRKPEDTAVYYCAVRRPRRNYNYPYDYWGQGTQVTVSS | low polyreactivity |
| QVQLVESRGGLVQAGGSLRLSCAASGRIFSKYAMGWYRQAPGKERELVAGITIAGRTKYADSVKGRFTISRDNAKNTVYLQMNSQKPEDTAVYYCAARAQATGGYGYWGQGTQVTVSS | high polyreactivity |
| QVQLVESGGGLVQAGGSLRLSSDDSGFTFVSNAMGWYRQAPGKEMELVAVISSGGSTTYADSVKGRFTISRDNAKNTVYLQMNSLKPEDTAVYYCATTNYQDSYEGGDYWGQGTQVTVSS | low polyreactivity |
| QVQLVESGGGLVQAGGSLRLSCAASGSTFVPYTMGWYRQAPGKERELVAAISGSGGTDYADSVKGRFTISRDNAKNTVYLQMNSLKPEDTAVYYCATDGLDFWFIYDYWGQGTQVTVSS | low polyreactivity |
| QVQLVESGGGLVQAGGSLRLSCAASGLILHKYAMGWYRQAPGKERELVASINSGANTNYADSVKGRFTISRDNAKNTVYLQMNSLKPEDTAVYYCNADPGFRDYYWGQGTQVNVSS | low polyreactivity |
| QVHLVESGGGLVQAGGSLRLSCPASGFTFDNYAMGWYRQPPGKERELVAAINWSGGRTYYADSVKGRFTISRDNAKNTVYLQMNSLKPEDTAVYYCGVPGYVRMDYWGQGTQVTVSS | high polyreactivity |
| QVQLVESGGGLVQAGGSLPLSCAASGRTYVSYVMGRYRQAPGKEREFVAAISRSGGNTYYADSVKGRFTISRDTAKNTVYLQMNSLNPEDTAVYYCYVLLQRVYGTAPSFDYWGQGTQVTVSS | high polyreactivity |
| QVQLVESGGGLVQAGGSLRLSCAASGRTFYSYTMGWYRQAPGKEREFVAAISSSGSSTYYADSVKGRFTISRDNAKYTVYLQMNSLKPEDTAVYYCAATRYRYPGYFRYDYWGQGTQVTVSS | high polyreactivity |
| QVQLVESGGGLVQAGGSLRLSCAASGIIFDVYAMGWYRQAPGKEREFVAAITTGGSTNYADSVKGRFTISRDNAKNSVYLQMNSLTPEDTAVYYCNADWDVGYGYWGQGTQVTVSS | low polyreactivity |
| QVQLVESGGGLVQAGGSLRLICAASGSTFGLNTMGWYRQAPGKDRELVAGITWSGGTTYYADSVKGRFTISRDNAKNTVYLQMNSLKPEDTAVYYCAAAVCDHYWYSRAYYYWGQGTQVTLSS | high polyreactivity |
| QVQLVESGGGLVQAGVSLRLSCAASGFTFSRNAMGWYRQAPGKERELVAAISRSGGSTYYAYSVKGRFTISRDNAKNTVYLQINSLKQEDTAVYYCATSCTPNYFVTSDYWGQGTQVTVSS | high polyreactivity |
| QVQLVESGGGLVQAGGSLRLSCAASGSTFVGYAMGWYRQAPGKERELVAHISYSGGSTYYADSVKGRFTISCDNAKNTVYLQMNSLKPEDTAVYYCAAEWSRHYYYAPRYDYWGQGTQVTVSS | low polyreactivity |
| QVQLVESGGGLVQAGGSLRLSCAASGPIIGQYAMVWYIQAPGKERELVAAITYSGGRTYYADSVKGRFTISRDNAKNTVYLQMNSLKPEDTAVYYCAARGRASFERRGGYYYWGQVTQVTVSS | high polyreactivity |
| QVQLVESGGGLVQAGGSLSLSCAASGRTFYTNAMGSSRQAPGKERELVAAISLRDVNTYYADSVKGRFTISRDNAKNTVYLQMNSLKPEDTAVYYCAARSRRRFDWGQGTQVTVSS | high polyreactivity |
| QVQLVESGGGLVQAGGSLRLSCAASGRIFGSYTMGWYRQAPGKERELVAAISFSGARTRYADSVKGRFTISRDNAKNTVYLQMNSLKPEDTAVYYCAARFTGGKYDYWGQGTQVTVSS | high polyreactivity |
| KVQLVESGGGLVQAGGSLRLSCAASGYIFSYYAMGWYRQAPGKERELVAAITASGGRTYYADSVKGRFTISRDNAKNTVYLQMNSQKPEDTAVYYCARASGIILQGQLVRWYRYNYLGQGTQVTVSS | high polyreactivity |
| QVQLVESGGGLVQAGGSLRLSSASSRSTFLLNAMGWYRQEPGKERELVAAITWTGGSTYYADSVKGLFTISRDNANNNVYLQMNSLNQEDTAVYYCAAETYVTSYYYWGQGTQVTVSS | low polyreactivity |
| QVQLVESGGGLVQAGGSLLLSCGASGFIFYAYAMGWYRQAPVKDRELVAVMSSSGGSTYYADSVTGRFSISRAHAKTTVYLEWNSLKPDDTGGYYCAAETGTGETRYYRYWDYYYWGQGTQVTVSS | high polyreactivity |
| QVQLVESGGGLVQAGGSLRFSCGGWGSISEVYAMGWYRPAPGKERELVAAITSGASTNYADSVNGRFTISRDNAKNTVYLQMNSLKPEDTAVYYCAADSDSQWGMDYWGQGTQVTVSS | low polyreactivity |
| QVQLVESGGGLVQAGGSLRLSCAASGSTSLYYAMGWYRQAPGKEREFVAAITWSGGSTYYADSVKGRFTISRDNAKNTVYLQMNSLKPEDTAVYYCAARSYGYSAGYYWGQGTQVTVSS | high polyreactivity |
| QVQLVESGGGLVQAGGSLRLSCAASGITFRWYAMGWYRQAPGKERELVAAIRSGSSTYYADSVKGRFTISRDNAKNTVYLQMNSLKPEDPAVYYCNARPWYSWGVDYDYWGQGTQVTVSS | low polyreactivity |
